This is an account of results in article PMC1559926 (2006).

The test deals with T1, Caveolin-1 1-178 (UniProt Q03135).
T1 chain: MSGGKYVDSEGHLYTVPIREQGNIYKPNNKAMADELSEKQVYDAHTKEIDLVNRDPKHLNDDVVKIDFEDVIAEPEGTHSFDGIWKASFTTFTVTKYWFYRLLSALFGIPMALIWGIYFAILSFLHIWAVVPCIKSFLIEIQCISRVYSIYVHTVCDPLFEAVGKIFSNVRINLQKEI
Briefly: given as Ka.

B1: PrP (protein)
chain: not shown
As usually defined, the Kd is the concentration at which binding is half-saturated. The low end stands for higher affinity, the high end for lower affinity. B1: the Kd was approximately 1.18 nM.
